Key:
[1] = biological target: T1, histone H3 (Bos taurus, UniProt P68432); assay: Identification of methylated amino acids in histone H3 by thin layer chromatography of the hydrolyzate; format: biochemical, calf; settings: histone H3 methylated by CARM1, thin layer chromatography
T1 construct: A 3.2-kb partial CARM1 cDNA clone with an open reading frame of 606 amino acids (CARM1(3-608)); purchased Boehringer Mannheim; host or cells: histone H3 from calf thymus; GST-CARM1 made in E. coli BL21
Procedure: Histone H3 was incubated for 60 min at 30° C. in a 100 μl methylation reaction as described in FIG. 8, containing 0.024 mg/ml GST-CARM1 and 0.63 mg/ml H3. The reaction was stopped with 25 μl of 3% (v/v) trifluoroacetic acid (TFA), 15% (v/v) acetonitrile, and 100 μl was injected into a 3 cm×4.6 mm RP-300 reversed-phase guard column (Perkin Elmer-Brownlee) equilibrated with 80% solvent A (0.3% TFA in water) and 20% solvent B (0.3% TFA in acetonitrile). Methylated H3 was separated from unreacted S-adenosylmethionine using a gradient of 20-80% solvent B over 5 min at a flow rate of 1.0 ml/min. H3 eluted as a broad complex peak detected by monitoring absorbance at 214 nm. The H3 pool was reduced to dryness in a vacuum centrifuge and then subjected to acid hydrolysis in 6 N HCl at 112° C. for 20 h. […] Radioactivity in the fractions was determined by liquid scintillation counting, and peak identity was determined by comparison to derivatized standards including the three major forms of methylarginine and methyllysine. […] Radioactive spots corresponding to the positions of the three forms of methylarginine (which all separated from each other) were removed by scraping the chromatogram, and quantified by liquid scintillation counting. […]

[2] = test system: hnRNPA1; assay: Methylation of hnRNP A1, SDS-PAGE and fluorography (FIG. 8C); format: biochemical, human; settings: 0.083 mg/ml hnRNP-A1
Procedure: CARM1 and PRMT1 have different protein methyltransferase substrate specificities. CARM1 methylates histone H3, whereas PRMT1 methylates histone H4. […] (A,B) Calf thymus histones (Boehringer Mannheim) were incubated for 30 min at 30° C. in 32.5 μl reactions containing 20 mM Tris-Cl, 0.2 M NaCl, 4 mM EDTA, pH 8.0, 0.32 mg/ml individual histone (2a, 2b, 3, or 4) or 1.3 mg/ml mixed histone (M), 0.037 mg/ml GST-CARM1 or GST-PRMT1, and 7 μM S-adenosyl-L-[methyl-^3H]methionine (specific activity of 14.7 Ci/mmol). Reactions were stopped by addition of SDS-NuPAGE sample buffer (Novex), and 40% of each stopped reaction was then subjected to SDS-PAGE in 4-12% NuPAGE Bis-Tris gradient gels (Novex) using the Na-MES running buffer. Gels were stained with Coomassie Blue R-250 (A), and then subjected to fluorography (Chamberlin, M. (1978) Anal. Biochem. 98:132) for 12 h at −70° C. on sensitized Kodak XAR-5 film (B). Molecular weight markers (MW) are shown at left. Concentrations of GST fusion proteins were determined in comparison with bovine serum albumin standards (Sigma) by SDS polyacrylamide gel electrophoresis and Coomassie Blue staining; it was assumed that bovine serum albumin stained twice as intensely as most other proteins. Concentrations of histones and hnRNP A1 were determined by the method of Lowry (Lowry, O. H. et al. (1951) J. Biol. Chem. 193:265). […]

B1: CARM1: novel murine protein arginine methyltransferase and transcriptional coactivator, 608 amino acids (protein, listed as Mus musculus)
chain: MAAAAATAVGPGAGSAGVAGPGGAGPCATVSVFPGARLLTIGDANGEIQRHAEQQALRLEVRAGPDAAGIALYSHEDVCVFKCSVSRETECSRVGRQSFIITLGCNSVLIQFATPHDFCSFYNILKTCRGHTLERSVFSERTEESSAVQYFQFYGYLSQQQNMMQDYVRTGTYQRAILQNHTDFKDKIVLDVGCGSGILSFFAAQAGARKIYAVEASTMAQHAEVLVKSNNLTDRIVVIPGKVEEVSLPEQVDIIISEPMGYMLFNERMLESYLHAKKYLKPSGNMFPTIGDVHLAPFTDEQLYMEQFTKANFRYQPSFHGVDLSALRGAAVDEYFRQPVVDTFDIRILMAKSVKYTVNFLEAKEGDLHRIEIPFKFHMLHSGLVHGLAFWFDVAFIGSIMTVWLSTAPTEPLTHWYQVRCLFQSPLFAKAGDTLSGTCLLIANKRQSYDISIVAQVDQTGSKSSNLLDLKNPFFRYTGTTPSPPPGSHYTSPSENMWNTGSTYNLSSGVAVAGMPTAYDLSSVIAGGSSVGHNNLIPLANTGIVNHTHSRMGSIMSTGIVQGSSGAQGGGGSSSAHYAVNNQFTMGGPAISMASPMSIPTNTMHYGS
**Q.** Which “radiolabel migrating with N^G,N^G-dimethylarginine” value [1] does the source give for B1 here?
**A.** Its value is “approximately 70%”.

**Q.** What about the “radiolabel migrating with N^G-monomethylarginine” value [1] of the same molecule?
**A.** The value was 30%.

**Q.** What about the “methylation of hnRNPA1” value [2] of the same molecule?
**A.** Its value is “not methylated”.

Source: US8247168B2, “Regulation of gene expression by protein methylation” (University of Southern California, priority 1998, dated 2012)
